Data on 7 molecules can be found in US20220380459A1 (DRAGONFLY THERAPEUTICS, published 2022).

Numbering of substitutions follows the chain as printed.

B1: ADI-10164 Fab (Fab, V domains shown)
VH: QVQLQESGPGLVKPSETLSLTCAVSGYSISSGYYWGWIRQPPGKGLEWIGSIYHSGSTNYNPSLKSRVTISVDTSKNQFSLKLSSVTAADTAVYYCARLPPWFGFSYFDLWGRGTLVTVSS
VL: EIVLTQSPATLSLSPGERATLSCRASQSVSSYLAWYQQKPGQAPRLLIYDASNRATGIPARFSGSGSGTDFTLTISSLEPEDFAVYYCQQVDNYPPTFGGGTKVEIK
notes: Fab fragment; also called Ab18
B2: ADI-10157 Fab (Fab, V domains shown)
VH: QVQLQESGPGLVKPSETLSLTCTVSGGSISSYYWSWIRQPPGKGLEWIGSIYYSGSTNYNPSLKSRVTISVDTSKNQFSLKLSSVTAADTAVYYCARVGGVYSTIETYGMDVWGQGTTVTVSS
VL: EIVMTQSPATLSVSPGERATLSCRASQSVSSNLAWYQQKPGQAPRLLIYGASTRATGIPARFSGSGSGTEFTLTISSLQSEDFAVYYCQQYTVYPPTFGGGTKVEIK
notes: Fab fragment; also called Ab13
B3: ADI-11826 Fab (Fab, V domains shown)
VH: EVQLVESGGGLVQPGGSLRLSCAASGFTFPGYWMSWVRQAPGKGLEWVANINQDGSEVYYVDSVKGRFTISRDNAKNSLYLQMNSLRAEDTAVYYCAREANYYGNVGDDYWGQGTLVTVSS
VL: DIQMTQSPSSLSASVGDRVTITCRASQSIYNYLNWYQQKPGKAPKLLIYAASSTQSGVPSRFSGSGSGTDFTLTISSLQPEDFATYYCQQAFHVPITFGGGTKVEIK
notes: Fab fragment; also called Ab26
B4: ADI-11828 Fab (Fab, V domains shown)
VH: EVQLVESGGGLVQPGGSLRLSCAASGFTFSSYWMSWVRQAPGKGLEWVANINQDGSEVYYVDSVKGRFTISRDNAKNSLYLQMNSLRAEDTAVYYCARDVGPGIAYQGHFDYWGQGTLVTVSS
VL: B3 VL with N31Y, T54R, A91V, F92Y, H93D, V94T, I96L
notes: Fab fragment; also called Ab27
B5: ADI-11825 Fab (Fab, V domains shown)
VH: B3 VH with P30G, V58E
VL: B3 VL with S53N, T54L, Q55H
notes: Fab fragment; also called Ab25
B6: ADI-10160 Fab (Fab, V domains shown)
VH: B3 VH with P30S, G31S, V58K
VL: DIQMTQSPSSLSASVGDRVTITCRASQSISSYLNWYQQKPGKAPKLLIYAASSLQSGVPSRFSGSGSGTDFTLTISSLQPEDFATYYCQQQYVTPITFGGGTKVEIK
notes: Fab fragment; also called Ab15
B7: ADI-10161 Fab (Fab, V domains shown)
VH: EVQLVESGGGLVQPGGSLRLSCAASGFTFSSYWMSWVRQAPGKGLEWVANINQDGSEKYYVDSVKGRFTISRDNAKNSLYLQMNSLRAEDTAVYYCAREGGDSWYHAFDIWGQGTMVTVSS
VL: DIQMTQSPSSVSASVGDRVTITCRASQGISSWLAWYQQKPGKAPKLLIYAASNLQSGVPSRFSGSGSGTDFTLTISSLQPEDFATYYCQQKLSLPLTFGGGTKVEIK
notes: Fab fragment; also called Ab16

The first assay has as its target T1, C domain of human CD33 (human, UniProt P20138 140-259, limits assumed).
T1 construct: recombinant C domain
Briefly: SPR, Fab captured, 37C. For orientation: Surface plasmon resonance follows binding to a sensor surface in real time, without labels.
Description: (§1) Kinetics and affinity of a series of Fab fragments of anti-CD33 antibodies with different CD33 variants (human CD33 ECD, cyno CD33 ECD, V-domain of human CD33, C-domain or human CD33 and selected CD33 SNPs) were assessed by surface plasmon resonance using Biacore 8K instrument (GE Healthcare). Anti-Fab antibody was immobilized on a CMS chip using standard amine coupling chemistry. CD33 FABs were captured on the anti-Fab chip at a density of ˜100 RU. Solutions containing different concentrations of soluble monomeric CD33 or its domains were injected over the captured FABs and control surfaces at 30 μl/min at 37° C. Surfaces were regenerated between cycles by quick injection of 10 mM glycine, pH 1.8. To obtain kinetic rate constants double-referenced data were fit to a 1:1 interaction model using Biacore 8K Evaluation software (GE Healthcare). The equilibrium binding constant KD was determined by the ratio of binding rate constants kd/kₐ.
The binding interface between the Fab fragment of each CD33 antibody to CD33 was mapped.
Turning to B1, the binding result was “no binding”.

With B2, the binding result is “no binding”.

Turning to B3, the binding result is listed as “no binding”.

As to B4, the binding result is “no binding”.

Turning to B5, the binding result is “no binding”.

B6: the binding result is recorded as “no binding”.

As for B7, the binding result was “no binding”.

For the next assay, the target named is T2, human CD33 extracellular domain (human, UniProt P20138 18-259).
T2 construct: soluble monomeric ECD; also called human CD33 ECD; hCD33
Description: SPR, Fab captured, 37C.
As for B1, the affinity, expressed as Kd, was 31.5 nM; the koff (in general, a measure of how fast the partners let go of each other) stood at 0.0101 s⁻¹; the on-rate (kon) (commonly the rate constant with which the complex forms) came to 319000 M⁻¹ s⁻¹.

With B2, the Kd (in general, the constant that tells how readily two partners part at equilibrium) was 2.69 nM; the koff is 0.0076 s⁻¹; the kon was 2.82e+06 M⁻¹ s⁻¹.

With B3, the dissociation constant (Kd) was 2.63 nM, the koff was 0.00463 s⁻¹ and the kon was 1.76e+06 M⁻¹ s⁻¹.

In the case of B4, the equilibrium dissociation constant (Kd) was determined as 2.67 nM, the dissociation rate constant (koff) stood at 0.00351 s⁻¹ and the kon came to 1.32e+06 M⁻¹ s⁻¹.

As to B5, the dissociation constant Kd is 1.78 nM, the koff is 0.0038 s⁻¹ and the on-rate (kon) came out at 2.13e+06 M⁻¹ s⁻¹.

As for B6, the Kd turned out to be 42.2 nM, the off-rate (koff) is 0.0269 s⁻¹ and the on-rate (kon) was 637000 M⁻¹ s⁻¹.

Consider B7, for which the Kd is 20.6 nM, the koff came out at 0.0118 s⁻¹ and the kon was found to be 574000 M⁻¹ s⁻¹.

Another assay addresses T3, cyno CD33 extracellular domain (Cynomolgus/Rhesus (cyno)).
T3 construct: soluble monomeric ECD; also called cyno CD33 ECD
Description: SPR, Fab captured, 37C.
B1: the binding result is on record as “no binding (tested: 100 nM)”.

Turning to B2, the binding result is on record as “no binding (tested: 100 nM)”.

With B3, the binding result is given as “no binding (tested: 100 nM)”.

In the case of B4, the Kd was found to be 53.5 nM, the off-rate (koff) came to 0.0548 s⁻¹ and the kon is 1.03e+06 M⁻¹ s⁻¹.

Regarding B5, the binding result is reported as “no binding (tested: 100 nM)”.

With B6, the binding result was “no binding (tested: 100 nM)”.

With B7, the binding result is listed as “no binding (tested: 100 nM)”.

In another assay the target is T2, human CD33 extracellular domain. Description: SPR, Fab captured, 37C. This is another data set of the same source.
Description: as §1
(§2) Affinity of 29 Fab fragments binding to human and cyno CD33 ECD were assayed by Biacore analysis.
For the molecule B1, the Kd was determined as 31.5 nM and the koff stood at 0.0101 s⁻¹.

Molecule B2 yielded a Kd of 2.69 nM and an off-rate constant (koff) of 0.0076 s⁻¹.

Consider B3, for which binding was characterised by a dissociation constant (Kd) of 2.63 nM and the dissociation rate constant (koff) was 0.00463 s⁻¹.

For the molecule B4, the dissociation constant (Kd) is 2.67 nM and the dissociation rate constant (koff) amounted to 0.00351 s⁻¹.

B5 displayed a Kd of 1.78 nM and an off-rate (koff) of 0.0038 s⁻¹.

In the case of B6, the dissociation constant (Kd) amounted to 42.2 nM and the off-rate (koff) amounted to 0.0269 s⁻¹.

Consider B7, for which the equilibrium dissociation constant (Kd) amounted to 20.6 nM and the koff came to 0.0118 s⁻¹.

For the next assay the target is unchanged. Briefly: SPR, Fab captured, 37C. This is another data set of the same source.
With B1, the Kd came to 31.5 nM, the koff is 0.0101 s⁻¹ and the kon was found to be 319000 M⁻¹ s⁻¹.

B2 showed a Kd of 2.69 nM, a dissociation rate constant (koff) of 0.0076 s⁻¹ and an on-rate constant (kon) of 2.82e+06 M⁻¹ s⁻¹.

In the case of B3, binding was put at a Kd of 2.63 nM, the koff was determined as 0.00463 s⁻¹ and the kon came out at 1.76e+06 M⁻¹ s⁻¹.

On to B4, for which the affinity, expressed as Kd, was 2.67 nM; the koff is 0.00351 s⁻¹; the association rate constant (kon) was 1.32e+06 M⁻¹ s⁻¹.

Turning to B5, the Kd is 1.78 nM, the koff came to 0.0038 s⁻¹ and the kon was 2.13e+06 M⁻¹ s⁻¹.

B6: the dissociation constant Kd is 42.2 nM, the off-rate (koff) is 0.0269 s⁻¹ and the on-rate constant (kon) amounted to 637000 M⁻¹ s⁻¹.

Molecule B7 registered a Kd of 20.6 nM, an off-rate constant (koff) of 0.0118 s⁻¹ and a kon of 574000 M⁻¹ s⁻¹.

The target in another assay is T4, V domain of human CD33 (human, UniProt P20138 18-139, limits assumed).
T4 construct: recombinant, fully glycosylated V domain; also called Human CD33 V domain
Description: SPR, Fab captured, 37C.
Turning to B1, the Kd came to 286 nM, the off-rate (koff) stood at 0.37 s⁻¹ and the kon turned out to be 1.29e+06 M⁻¹ s⁻¹.

On to B2, for which the dissociation constant (Kd) came out at 134 nM, the koff turned out to be 0.0151 s⁻¹ and the kon amounted to 112000 M⁻¹ s⁻¹.

In the case of B3, binding was put at a Kd of 4.38 nM, the koff was found to be 0.0225 s⁻¹ and the on-rate constant (kon) stood at 5.12e+06 M⁻¹ s⁻¹.

B4 registered a Kd of 6.3 nM, a koff of 0.0213 s⁻¹ and a kon of 3.37e+06 M⁻¹ s⁻¹.

Molecule B5 came in with a Kd of 3.95 nM, a koff of 0.0195 s⁻¹ and a kon of 4.93e+06 M⁻¹ s⁻¹.

As for B6, the Kd was found to be 206 nM, the off-rate constant (koff) was found to be 0.327 s⁻¹ and the kon worked out at 1.59e+06 M⁻¹ s⁻¹.

For the molecule B7, binding was characterised by a dissociation constant (Kd) of 95.8 nM, the koff turned out to be 0.124 s⁻¹ and the on-rate (kon) amounted to 1.29e+06 M⁻¹ s⁻¹.

A further assay has as its target T5, deglycosylated V domain of human CD33 (human, UniProt P20138 18-139, limits assumed, N-glycans removed by PNGase).
T5 construct: V domain deglycosylated by PNGase before testing; also called deglycosylated V CD33
Briefly: SPR, Fab captured, 37C.
B1 came in with a dissociation constant Kd of 143 nM, a koff of 0.116 s⁻¹ and an on-rate constant (kon) of 811000 M⁻¹ s⁻¹.

B2 gave a Kd of 63.8 nM, a dissociation rate constant (koff) of 0.0261 s⁻¹ and a kon of 411000 M⁻¹ s⁻¹.

Take B3: the Kd was 3.69 nM, the koff is 0.0198 s⁻¹ and the association rate constant (kon) was 5.37e+06 M⁻¹ s⁻¹.

Consider B4, for which binding was characterised by a dissociation constant (Kd) of 4.87 nM, the koff is 0.0189 s⁻¹ and the association rate constant (kon) was 3.59e+06 M⁻¹ s⁻¹.

The molecule B5 yielded a dissociation constant Kd of 3.11 nM, a dissociation rate constant (koff) of 0.018 s⁻¹ and a kon of 5.78e+06 M⁻¹ s⁻¹.

B6 registered a Kd of 133 nM, a koff of 0.225 s⁻¹ and a kon of 1.7e+06 M⁻¹ s⁻¹.

Consider B7, for which the Kd was 85.6 nM, the koff is 0.196 s⁻¹ and the kon was determined as 2.29e+06 M⁻¹ s⁻¹.

The target in a further assay is T4, V domain of human CD33. Briefly: SPR, Fab captured, 37C. This is another data set of the same source.
The molecule B1 displayed a Kd of 286 nM, a koff of 0.37 s⁻¹ and a kon of 1.29e+06 M⁻¹ s⁻¹.

In the case of B2, the equilibrium dissociation constant (Kd) came to 134 nM, the koff was determined as 0.0151 s⁻¹ and the kon amounted to 112000 M⁻¹ s⁻¹.

B3 had an equilibrium dissociation constant (Kd) of 4.38 nM, a koff of 0.0225 s⁻¹ and a kon of 5.12e+06 M⁻¹ s⁻¹.

Consider B4, for which the equilibrium dissociation constant (Kd) was found to be 6.3 nM, the off-rate (koff) was found to be 0.0213 s⁻¹ and the on-rate (kon) was 3.37e+06 M⁻¹ s⁻¹.

Molecule B5 gave a Kd of 3.95 nM, a koff of 0.0195 s⁻¹ and a kon of 4.93e+06 M⁻¹ s⁻¹.

As to B6, the Kd was found to be 206 nM, the koff was 0.327 s⁻¹ and the kon was found to be 1.59e+06 M⁻¹ s⁻¹.

As for B7, the dissociation constant (Kd) is 95.8 nM, the koff worked out at 0.124 s⁻¹ and the on-rate constant (kon) is 1.29e+06 M⁻¹ s⁻¹.

The next assay has as its target T2, human CD33 extracellular domain. Description: SPR, Fab captured, 37C. The source holds these as a separate data set.
Description: as §1, §2
B1 registered a Kd of 31.5 nM, a dissociation rate constant (koff) of 0.0101 s⁻¹ and a kon of 319000 M⁻¹ s⁻¹.

As for B2, binding was characterised by a dissociation constant (Kd) of 2.69 nM, the koff was 0.0076 s⁻¹ and the association rate constant (kon) came out at 2.82e+06 M⁻¹ s⁻¹.

B3: the Kd was determined as 2.63 nM, the dissociation rate constant (koff) worked out at 0.00463 s⁻¹ and the on-rate (kon) is 1.76e+06 M⁻¹ s⁻¹.

In turn, B4 had a Kd of 2.67 nM, an off-rate (koff) of 0.00351 s⁻¹ and a kon of 1.32e+06 M⁻¹ s⁻¹.

With B5, the affinity, expressed as Kd, was 1.78 nM; the dissociation rate constant (koff) turned out to be 0.0038 s⁻¹; the kon worked out at 2.13e+06 M⁻¹ s⁻¹.

Take B6: the equilibrium dissociation constant (Kd) was 42.2 nM, the koff came to 0.0269 s⁻¹ and the kon was found to be 637000 M⁻¹ s⁻¹.

With B7, the dissociation constant (Kd) was determined as 20.6 nM, the off-rate (koff) was determined as 0.0118 s⁻¹ and the on-rate constant (kon) worked out at 574000 M⁻¹ s⁻¹.
